Consider two substances from patent EP0266663A1.

Assay [1] deals with L6 antigen (human) (UniProt P30408). Briefly: inhibition of the binding of FITC-labelled mouse L6 to 3347 cells, flow cytometry; 50% inhibition; run with the pooled chimeric L6. (In general: A flow cytometer gives signals particle by particle.)
For assay [2] the target is unchanged. Briefly: inhibition of the binding of FITC-labelled mouse L6 to 3347 cells, flow cytometry; 50% inhibition; run with the chimeric L6 from ascites.
Assay [3] has the same target. Put plainly: cell-based or functional assay.
Assay [4] shares this target. Briefly: inhibition of the binding of FITC-labelled mouse L6 to 3347 cells, flow cytometry; 50% inhibition.

For orientation: IC50 means the concentration that inhibits the measured activity by half. High values mean a need for much substance, low ones inhibition by little substance.

UniProt P30408, sequence (P30408 whole entry): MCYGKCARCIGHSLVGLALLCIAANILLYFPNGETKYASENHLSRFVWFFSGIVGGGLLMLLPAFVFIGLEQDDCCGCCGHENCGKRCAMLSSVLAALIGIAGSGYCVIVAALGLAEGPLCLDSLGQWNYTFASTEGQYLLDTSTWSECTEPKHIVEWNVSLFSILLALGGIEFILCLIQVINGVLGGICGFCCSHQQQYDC

Take L6 monoclonal antibody (mouse, IgG2a): the values for the IC50 in assay [1] and in assay [2] were 2 µg/mL and 2.7 µg/mL, respectively.

On to “chimeric L6 antibody (from UniProt P01857 1-330)”, for which the tumor killing activity (ADCC or CDC) in assay [3] stood at 0.01 µg/mL. This substance also gave an IC50 in assay [4] of 3.4 µg/mL.
